degradation_or_half_life and expression_or_secretion data for two substances are collected here from PMC11227718.

A short description of data set [1]: cycloheximide chase, immunoblot.
Data set [2] can be described thus: immunoblot of endogenous CCDC88C, BT549. The following applies: glycan gained; control: empty vector. (Immunoblotting shows a protein as a band on a membrane.)
Data set [3] in a line: immunoblot of endogenous CCDC88C. As to conditions: glycan lost; control: negative control siRNA.

For “Coiled-coil domain containing 88C (CCDC88C, Daple): GALNT6 overexpression”, in data set [1] (glycan gained, control: empty vector), the degradation_or_half_life result was “increases”. Further, in data set [2], the expression_or_secretion result is on record as “increases”.

As to “Coiled-coil domain containing 88C (CCDC88C, Daple): si-GALNT6”, in data set [1] (glycan lost, control: negative control siRNA), the degradation_or_half_life result is given as “decreases”. The expression_or_secretion result in data set [3] is given as “decreases”.
